# Data taken from patent US20260071002A1 (Hoffmann-La Roche, published 2026).
# Where two headings read alike, the source gives them in different places.
# T1: human CEACAM5 (human, UniProt P06731 35-685)
# T1 construct: whole, on cells; Target on MKN-45 (DSMZ ACC409) and LS180 (ATCC CL-187) cells; also called carcinoembryonic antigen-related cell adhesion molecule 5; CD66e
# T1 sequence (looked up): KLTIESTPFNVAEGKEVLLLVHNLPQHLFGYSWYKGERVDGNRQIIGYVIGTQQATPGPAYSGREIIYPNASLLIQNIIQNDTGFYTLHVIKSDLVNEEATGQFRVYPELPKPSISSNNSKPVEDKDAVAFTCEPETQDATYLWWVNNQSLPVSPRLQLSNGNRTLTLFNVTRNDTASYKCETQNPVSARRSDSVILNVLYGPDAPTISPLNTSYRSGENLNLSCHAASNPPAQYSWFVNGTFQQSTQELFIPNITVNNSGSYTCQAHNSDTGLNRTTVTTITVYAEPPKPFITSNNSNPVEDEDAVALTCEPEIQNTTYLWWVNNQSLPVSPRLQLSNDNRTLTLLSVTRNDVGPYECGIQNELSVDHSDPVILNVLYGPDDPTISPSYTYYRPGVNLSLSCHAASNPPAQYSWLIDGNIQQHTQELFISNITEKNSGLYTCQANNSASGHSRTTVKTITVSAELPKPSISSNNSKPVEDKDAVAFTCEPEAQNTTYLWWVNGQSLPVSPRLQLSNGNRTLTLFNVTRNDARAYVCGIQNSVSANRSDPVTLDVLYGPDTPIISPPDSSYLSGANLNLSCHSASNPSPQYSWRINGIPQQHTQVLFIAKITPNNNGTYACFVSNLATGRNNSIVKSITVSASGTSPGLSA
# T2: human CEACAM1 (human, UniProt P13688 35-526)
# T2 construct: whole, on cells; also called CHO-CEACAM1
# T2 sequence (looked up): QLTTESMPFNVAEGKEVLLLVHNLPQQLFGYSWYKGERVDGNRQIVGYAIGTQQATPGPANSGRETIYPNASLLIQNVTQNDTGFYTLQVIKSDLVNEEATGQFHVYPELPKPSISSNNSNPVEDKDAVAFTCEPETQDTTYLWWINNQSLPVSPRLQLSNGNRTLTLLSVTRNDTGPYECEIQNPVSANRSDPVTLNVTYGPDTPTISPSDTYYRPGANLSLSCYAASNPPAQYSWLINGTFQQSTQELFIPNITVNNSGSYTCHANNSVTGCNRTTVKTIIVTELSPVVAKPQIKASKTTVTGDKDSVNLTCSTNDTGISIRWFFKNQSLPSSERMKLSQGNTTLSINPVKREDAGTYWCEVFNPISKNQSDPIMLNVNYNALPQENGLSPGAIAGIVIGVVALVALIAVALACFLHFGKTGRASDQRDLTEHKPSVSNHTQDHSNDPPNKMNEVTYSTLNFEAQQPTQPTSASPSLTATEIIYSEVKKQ
# T3: human CEACAM6 (human, UniProt P40199 35-320)
# T3 construct: whole, on cells; also called CHO-CEACAM6
# T3 sequence (looked up): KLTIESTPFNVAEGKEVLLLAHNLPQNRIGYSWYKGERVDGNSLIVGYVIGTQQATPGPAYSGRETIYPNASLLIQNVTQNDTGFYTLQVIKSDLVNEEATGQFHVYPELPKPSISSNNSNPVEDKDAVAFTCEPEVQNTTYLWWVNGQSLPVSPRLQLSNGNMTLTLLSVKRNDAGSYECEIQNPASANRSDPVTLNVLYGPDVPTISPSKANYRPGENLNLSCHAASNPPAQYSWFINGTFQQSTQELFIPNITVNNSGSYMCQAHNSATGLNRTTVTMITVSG
# Experiments:
# human CEACAM5 [1] = biological target: T1, human CEACAM5; assay: FACS on MKN-45 cells expressing human CEACAM5
# Method: The cellular binding assay was performed as follows.
# (§1) 10 μl of a 1×10⁴ MKN-45 (DSMZ ACC409) cell suspension in assay buffer was seeded in all Wells of a 384 well polypropylene plate (Weidmann #23490-101). Then 10 μl of antibodies diluted in assay buffer (double concentrated), at a start concentration of 100 μg/ml, serially diluted 1:4 were added to the plate. After 90 minutes incubation at 4° C., 60 μl assay buffer was added followed by a centrifuge step (330×g, 5 min) and an aspirating step (BioTek washer 405H) where 60 μl of supernatant were discarded. 20 μl of detection antibody (Alpaca anti rabbit IgG Chromotek #srbAF647-1) diluted in assay buffer (double concentrated) to a final concentration of 0.5 μg/ml was added to all Wells followed by 1 hour incubation time at room temperature. The cells were then subjected to two washing steps with 40 μl and 60 μl assay buffer as described above and then resuspended in 20 μl assay buffer. Cell binding was measured on an iQue Screener Plus high throughput FACS device from Sartorius/Intellicyt.
# human CEACAM5 [2] = biological target: T1, human CEACAM5; assay: FACS on MKN-45 cells expressing human CEACAM5; remark: listed apart in the source
# Method: as §1
# human CEACAM1 = biological target: T2, human CEACAM1; assay: FACS on CHO cells overexpressing human CEACAM1
# Method: (§2) Viability of CHO-CEACAM1 (CHO cells overexpressing human CEACAM1) and CHO-CEACAM6 (CHO cells overexpressing human CEACAM6) cells was checked. Then 100 μl of re-suspended target cells were seeded into a U-bottom plate (100′000 cells/well). The antibodies were diluted in FACS buffer. The plates were centrifuged for 4 min at 400×g and supernatant was removed. Then 25 µl/well of the diluted antibodies were added to the cells. The cells were incubated for 45 min at 4° C. After the incubation, cells were washed twice and 25 μl/well of diluted (1/100 in FACS buffer) PE anti-human Fc secondary antibody (Jackson Immuno Research, #109-116-170) or the directly labeled CD66 antibody (Clone B1.1/CD66, BD Bioscience, #551480) was added to the cells. The cells were incubated for 45 min at 4° C. After the incubation, cells were washed twice. Then cells were re-suspended in 150 μl/well of FACS buffer. Cell binding was measured on the BD LSRFortessa Flow Cytometer, the same day.
# human CEACAM6 = biological target: T3, human CEACAM6; assay: FACS on CHO cells overexpressing human CEACAM6
# Method: as §2
Binder,EC50 (human CEACAM5 [1]) [nM],EC50 (human CEACAM5 [2]) [mg/L],binding result (human CEACAM1),binding result (human CEACAM6)
"T84.66-LCHA (P1AH2338) (antibody, V domains shown, also called humanized variant 1) VH: QVQLVQSGAEVKKPGSSVKVSCKASGFNIKDTYMHWVRQAPGQGLEWMGRIDPANGNSKYVPKFQGRVTITADTSTSTAYMELSSLRSEDTAVYYCAPFGYYVSDYAMAYWGQGTLVTVSS VL: EIVLTQSPATLSLSPGERATLSCRAGESVDIFGVGFLHWYQQKPGQAPRLLIYRASNRATGIPARFSGSGSGTDFTLTISSLEPEDFAVYYCQQTNEDPYTFGQGTKLEIK",5.3,0.989,,
"P1AH2369 (antibody, V domains shown) VH: QVQLVQSGAEVKKPGSSVKVSCKASGFNIKDTYMHWVRQAPGQGLEWMGRIDPANGNSKYVPKFQGRVTITADTSTSTAYMELSSLRSEDTAVYYCAPFGYYVSDYAMAYWGQGTLVTVSS VL: EIVLTQSPATLSLSPGERATLSCRAGESVDIFGNSFLHWYQQKPGQAPRLLIYRASNRATGIPARFSGSGSGTDFTLTISSLEPEDFAVYYCQQTNEDPYTFGQGTKLEIK",5.5,,,
"P1AH2368 (antibody, V domains shown) VH: QVQLVQSGAEVKKPGSSVKVSCKASGFNIKDTYMHWVRQAPGQGLEWMGRIDPANGNSKYVPKFQGRVTITADTSTSTAYMELSSLRSEDTAVYYCAPFGYYVSDYAMAYWGQGTLVTVSS VL: EIVLTQSPATLSLSPGERATLSCRAGESVDSYGVGFLHWYQQKPGQAPRLLIYRASNRATGIPARFSGSGSGTDFTLTISSLEPEDFAVYYCQQTNEDPYTFGQGTKLEIK",2.5,,,
"P1AI5015 (antibody, human IgG1, V domains shown) VH: EVQLVESGGGLVQPGGSLRLSCAASGFNIKDTYMHWVRQAPGKGLEWVGRIDPANGNSKYADSVKGRFTISADTSKNTAYLQMNSLRAEDTAVYYCAPFGYYVSDYAMAYWGQGTTVTVSS VL: EIVLTQSPATLSLSPGERATLSCRAGESVDIFGVGFLHWYQQKPGQAPRLLIYRGSNRATGIPARFSGSGSGTDFTLTISSLEPEDFAVYYCQQTYEYPYTFGQGTKLEIK",,0.483,no binding,no binding
"P1AH2364 (antibody, human IgG1, name in Kabat numbering, V domains shown) VH: QVQLVQSGAEVKKPGSSVKVSCKASGFNIKDTYMHWVRQAPGQGLEWMGRIDPANGNSKYVPKFQGRVTITADTSTSTAYMELSSLRSEDTAVYYCAPFGYYVSDYAMAYWGQGTLVTVSS VL: EIVLTQSPATLSLSPGERATLSCRAGESVDIFGVGFLHWYQQKPGQAPRLLIYRGSNRATGIPARFSGSGSGTDFTLTISSLEPEDFAVYYCQQTNEDPYTFGQGTKLEIK",1.9,,,
"P1AH2361 (antibody, human IgG1, name in Kabat numbering, V domains shown) VH: QVQLVQSGAEVKKPGSSVKVSCKASGFNITDTYMHWVRQAPGQGLEWMGRIDPANGNSKYVPKFQGRVTITADTSTSTAYMELSSLRSEDTAVYYCAPFGYYVSDYAMAYWGQGTLVTVSS VL: EIVLTQSPATLSLSPGERATLSCRAGESVDIFGVGFLHWYQQKPGQAPRLLIYRASNRATGIPARFSGSGSGTDFTLTISSLEPEDFAVYYCQQTNEDPYTFGQGTKLEIK",21.9,,,

# Results, then the binder that gave them:
EC50 (human CEACAM5 [1]) [nM],EC50 (human CEACAM5 [2]) [mg/L],binding result (human CEACAM1),binding result (human CEACAM6),Binder
7.2,1.11,,,"P1AH2349 (antibody, human IgG1, V domains shown, also called rehumanized improved expression variant) VH: EVQLVESGGGLVQPGGSLRLSCAASGFNIKDTYMHWVRQAPGKGLEWVGRIDPANGNSKYADSVKGRFTISADTSKNTAYLQMNSLRAEDTAVYYCAPFGYYVSDYAMAYWGQGTTVTVSS VL: EIVLTQSPATLSLSPGERATLSCRAGESVDIFGVGFLHWYQQKPGQAPRLLIYRASNRATGIPARFSGSGSGTDFTLTISSLEPEDFAVYYCQQTNEDPYTFGQGTKLEIK"
12.9,,,,"P1AH2359 (antibody, human IgG1, name in Kabat numbering, V domains shown) VH: QVQLVQSGAEVKKPGSSVKVSCKASGFNIKDTYMHWVRQAPGQGLEWMGRIDPANGNSKYVPKFQGRVTITADTSTSTAYMQLSSLRSEDTAVYYCAPFGYYVSDYAMAYWGQGTLVTVSS VL: EIVLTQSPATLSLSPGERATLSCRAGESVDIFGVGFLHWYQQKPGQAPRLLIYRASNRATGIPARFSGSGSGTDFTLTISSLEPEDFAVYYCQQTNEDPYTFGQGTKLEIK"
2.5,,,,"P1AH2373 (antibody, human IgG1, name in Kabat numbering, V domains shown) VH: QVQLVQSGAEVKKPGSSVKVSCKASGFNIKDTYMHWVRQAPGQGLEWMGRIDPANGNSKYVPKFQGRVTITADTSTSTAYMELSSLRSEDTAVYYCAPFGYYVSDYAMAYWGQGTLVTVSS VL: EIVLTQSPATLSLSPGERATLSCRAGESVDIFGVGFLHWYQQKPGQAPRLLIYRASNRATGIPARFSGSGSGTDFTLTISSLEPEDFAVYYCQQTNENPYTFGQGTKLEIK"
3.1,,,,"P1AH2370 (antibody, human IgG1, name in Kabat numbering, V domains shown) VH: QVQLVQSGAEVKKPGSSVKVSCKASGFNIKDTYMHWVRQAPGQGLEWMGRIDPANGNSKYVPKFQGRVTITADTSTSTAYMELSSLRSEDTAVYYCAPFGYYVSDYAMAYWGQGTLVTVSS VL: EIVLTQSPATLSLSPGERATLSCRAGESVSIFGVGFLHWYQQKPGQAPRLLIYRASNRATGIPARFSGSGSGTDFTLTISSLEPEDFAVYYCQQTNEDPYTFGQGTKLEIK"
2.7,,,,"P1AH2366 (antibody, human IgG1, name in Kabat numbering, V domains shown, Kabat positions) VH: QVQLVQSGAEVKKPGSSVKVSCKASGFNIKDTYMHWVRQAPGQGLEWMGRIDPANGNSKYVPKFQGRVTITADTSTSTAYMELSSLRSEDTAVYYCAPFGYYVSDYAMAYWGQGTLVTVSS VL: EIVLTQSPATLSLSPGERATLSCRAGESVDIYGVGFLHWYQQKPGQAPRLLIYRASNRATGIPARFSGSGSGTDFTLTISSLEPEDFAVYYCQQTNEDPYTFGQGTKLEIK"
,1.53,no binding,no binding,"P1AI5014 (antibody, human IgG1, V domains shown) VH: EVQLVESGGGLVQPGGSLRLSCAASGFNIKDTYMHWVRQAPGKGLEWVGRIDPANGNSKYADSVKGRFTISADTSKNTAYLQMNSLRAEDTAVYYCAPFGYYVSDYAMAYWGQGTTVTVSS VL: EIVLTQSPATLSLSPGERATLSCRAGESVDIFGVGFLHWYQQKPGQAPRLLIYRGSNRATGIPARFSGSGSGTDFTLTISSLEPEDFAVYYCQQTNEDPYTFGQGTKLEIK"
